Sequences and labels used below:
B1: QP42664412 (antibody)
chain 1: DIVMTQSPDSLTVSLGERTTINCKSSQSVLDSSTNKNSLAWYQQKPGQPPKLLLSWASTRESGIPDRFSGSGSGTDFTLTIDSPQPEDSATYYCQQSAHFPITFGQGTRLEIKRTVAAPSVFIFPPSDEQLKSGTASVVCLLNNFYPREAKVQWKVDNALQSGNSQESVTEQDSKDSTYSLSSTLTLSKADYEKHKVYACEVTHQGLSSPVTKSFNRGEC
chain 2: QVQLVQSGAEVKKPGESVKVSCKASGYTFTNYGMNWVKQAPGQGLEWMGWINTYTGEPTYADKFQGRVTMTTDTSTSTAYMEIRNLGGDDTAVYYCARWSWSDGYYVYFDYWGQGTSVTVSSASTKGPSVFPLAPSSKSTSGGTAALGCLVKDYFPEPVTVSWNSGALTSGVHTFPAVLQSSGLYSLSSVVTVPSSSLGTQTYICNVNHKPSNTKVDKKVEPKSCDKTHTCPPCPAPEAAGGPSVFLFPPKPKDTLMISRTPEVTCVVVDVSHEDPEVKFNWYVDGVEVHNAKTKPREEQYNSTYRVVSVLTVLHQDWLNGKEYKCKVSNKALPAPIEKTISKAKGQPREPQVYTLPPSREEMTKNQVSLSCAVKGFYPSDIAVEWESNGQPENNYKTTPPVLDSDGSFFLVSKLTVDKSRWQQGNVFSCSVMHEALHNRYTQKSLSLSPGKGGSHHHHHH
chain 3: MEFGLSWLFLVAILKGVQCSYVLTQPSSVSVAPGQTATISCGGHNIGSKNVHWYQQRPGQSPVLVIYQDNKRPSGIPERFSGSNSGNTATLTISGTQAMDEADYYCQVWDNYSVLFGGGTKLTVLGGGGSGGGGSGGGGSITCPPPMSVEHADIWVKSYSLYSRERYICNSGFKRKAGTCSLTECVLNKATNVAHWTTPSLKCIR
chain 4: not shown
B2: QP42664415 (antibody)
chain 1: DIVMTQSPDSLTVSLGERTTINCKSSQSVLDSSTNKNSLAWYQQKPGQPPKLLLSWASTRESGIPDRFSGSGSGTDFTLTIDSPQPEDSATYYCQQSAHFPITFGQGTRLEIKRTVAAPSVFIFPPSDEQLKSGTASVVCLLNNFYPREAKVQWKVDNALQSGNSQESVTEQDSKDSTYSLSSTLTLSKADYEKHKVYACEVTHQGLSSPVTKSFNRGEC
chain 2: QVQLVQSGAEVKKPGESVKVSCKASGYTFTNYGMNWVKQAPGQGLEWMGWINTYTGEPTYADKFQGRVTMTTDTSTSTAYMEIRNLGGDDTAVYYCARWSWSDGYYVYFDYWGQGTSVTVSSASTKGPSVFPLAPSSKSTSGGTAALGCLVKDYFPEPVTVSWNSGALTSGVHTFPAVLQSSGLYSLSSVVTVPSSSLGTQTYICNVNHKPSNTKVDKKVEPKSCDKTHTCPPCPAPEAAGGPSVFLFPPKPKDTLMISRTPEVTCVVVDVSHEDPEVKFNWYVDGVEVHNAKTKPREEQYNSTYRVVSVLTVLHQDWLNGKEYKCKVSNKALPAPIEKTISKAKGQPREPQVYTLPPSREEMTKNQVSLSCAVKGFYPSDIAVEWESNGQPENNYKTTPPVLDSDGSFFLVSKLTVDKSRWQQGNVFSCSVMHEALHNRYTQKSLSLSPGKGGSHHHHHH
chain 3: MEFGLSWLFLVAILKGVQCQVQLVQSGAEVKKPGESLKVSCKASGYTFTSYYMHWVRQAPGQGLEWMGIINPSGGSTSYAQKFQGRVTMTRDTSTSTVYMELSSLRSEDTAVYYCARGSAYYYDFADYWGQGTLVTVSSGGGGSGGGGSGGGGSITCPPPMSVEHADIWVKSYSLYSRERYICNSGFKRKAGTCSLTECVLNKATNVAHWTTPSLKCIR
chain 4: not shown
B3: QP42664400 (antibody)
chain 1: DIVMTQSPDSLTVSLGERTTINCKSSQSVLDSSTNKNSLAWYQQKPGQPPKLLLSWASTRESGIPDRFSGSGSGTDFTLTIDSPQPEDSATYYCQQSAHFPITFGQGTRLEIKRTVAAPSVFIFPPSDEQLKSGTASVVCLLNNFYPREAKVQWKVDNALQSGNSQESVTEQDSKDSTYSLSSTLTLSKADYEKHKVYACEVTHQGLSSPVTKSFNRGEC
chain 2: QVQLVQSGAEVKKPGESVKVSCKASGYTFTNYGMNWVKQAPGQGLEWMGWINTYTGEPTYADKFQGRVTMTTDTSTSTAYMEIRNLGGDDTAVYYCARWSWSDGYYVYFDYWGQGTSVTVSSASTKGPSVFPLAPSSKSTSGGTAALGCLVKDYFPEPVTVSWNSGALTSGVHTFPAVLQSSGLYSLSSVVTVPSSSLGTQTYICNVNHKPSNTKVDKKVEPKSCDKTHTCPPCPAPEAAGGPSVFLFPPKPKDTLMISRTPEVTCVVVDVSHEDPEVKFNWYVDGVEVHNAKTKPREEQYNSTYRVVSVLTVLHQDWLNGKEYKCKVSNKALPAPIEKTISKAKGQPREPQVYTLPPSREEMTKNQVSLSCAVKGFYPSDIAVEWESNGQPENNYKTTPPVLDSDGSFFLVSKLTVDKSRWQQGNVFSCSVMHEALHNRYTQKSLSLSPGKGGSHHHHHH
chain 3: not shown
chain 4: not shown

Chain of CD33 naturally expressed on HL60 cells (P20138 18-364): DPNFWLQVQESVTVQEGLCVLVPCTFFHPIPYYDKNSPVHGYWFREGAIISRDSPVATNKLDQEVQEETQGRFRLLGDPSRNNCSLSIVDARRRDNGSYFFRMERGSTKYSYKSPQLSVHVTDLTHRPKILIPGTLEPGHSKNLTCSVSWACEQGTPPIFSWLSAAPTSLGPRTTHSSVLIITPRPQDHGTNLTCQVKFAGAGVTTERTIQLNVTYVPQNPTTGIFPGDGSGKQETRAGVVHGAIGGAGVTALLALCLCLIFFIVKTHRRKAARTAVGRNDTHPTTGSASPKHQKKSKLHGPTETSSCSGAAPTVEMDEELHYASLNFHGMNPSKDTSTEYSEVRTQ

This assay addresses CD33 naturally expressed on HL60 cells (human, UniProt P20138 18-364). As to the kind of experiment: FACS. On the technique in general: In flow cytometry, cells or beads pass a laser one at a time.
B1 displayed an EC50 of 12 nM. For B2, the EC50 was 14.2 nM. B3 registered an EC50 of 8.39 nM.

Broadly, the EC50 is the concentration needed to bring the measured effect to its halfway point. Read a high EC50 as lower potency in that assay.

(Values after US20240383985A1 (published 2024).)
